The source of these data is the supplement of paper PMC9112550, “Optimization of the antimicrobial peptide Bac7 by deep mutational scanning” (BMC Biology, 2022).

For the data set, the system named is Escherichia coli TOP10. Description: shrunken log2 fold change of peptide-encoding DNA abundance (4.5 h post-induction vs induction); higher = less antimicrobial activity (less host growth inhibition). The settings on record: time post-induction: 4.5 h; library: site-saturation at positions 5, 18, 19, 20.
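Note: peptides expressed intracellularly from a pBAD plasmid library in pooled LB shake-flask culture, induced with 0.3% L-arabinose, DNA abundance read by NGS, three biological replicates, DESeq2 with apeglm shrinkage.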

Regarding RRIRSRPPRLPRPRPRPMKQPRP, the “shrunken log2 fold change” value was 0.00692.

Consider RRIRERPPRLPRPRPRPVRCPRP, for which the “shrunken log2 fold change” value stood at 0.162.

Turning to RRIRIRPPRLPRPRPRPVFKPRP, the “shrunken log2 fold change” value is -0.25.

RRIRQRPPRLPRPRPRPRDNPRP: the “shrunken log2 fold change” value was -0.0667.

Regarding RRIRTRPPRLPRPRPRPVLEPRP, the “shrunken log2 fold change” value came out at 0.179.

Turning to RRIRTRPPRLPRPRPRPLYPPRP, the “shrunken log2 fold change” value is -0.154.

For RRIRGRPPRLPRPRPRPFRYPRP, the “shrunken log2 fold change” value worked out at 0.0984.

In the case of RRIRRRPPRLPRPRPRPIRDPRP, the “shrunken log2 fold change” value is 0.196.

As to RRIRERPPRLPRPRPRPYKLPRP, the “shrunken log2 fold change” value is -1.4.

RRIRPRPPRLPRPRPRPILRPRP: the “shrunken log2 fold change” value was -0.0705.

On to RRIRIRPPRLPRPRPRPKRFPRP, for which the “shrunken log2 fold change” value was found to be 0.276.

Regarding RRIRFRPPRLPRPRPRPYSRPRP, the “shrunken log2 fold change” value was -0.187.

For the sequence RRIRGRPPRLPRPRPRPMEIPRP, the “shrunken log2 fold change” value was -0.0753.

Consider RRIRSRPPRLPRPRPRPELFPRP, for which the “shrunken log2 fold change” value stood at 0.104.

In the case of RRIRYRPPRLPRPRPRPLWWPRP, the “shrunken log2 fold change” value was -0.696.

Take RRIRDRPPRLPRPRPRPICGPRP: the “shrunken log2 fold change” value came out at 0.0876.

As for RRIRNRPPRLPRPRPRPFQNPRP, the “shrunken log2 fold change” value was -0.0271.

As for RRIRLRPPRLPRPRPRPGQVPRP, the “shrunken log2 fold change” value was 0.318.

Consider RRIRERPPRLPRPRPRPLSTPRP, for which the “shrunken log2 fold change” value was -0.48.

Turning to RRIRDRPPRLPRPRPRPAWGPRP, the “shrunken log2 fold change” value came out at 0.769.

On to RRIRGRPPRLPRPRPRPTVWPRP, for which the “shrunken log2 fold change” value is 1.32.

As to RRIRNRPPRLPRPRPRPPFHPRP, the “shrunken log2 fold change” value was -0.17.

As for RRIRERPPRLPRPRPRPKQEPRP, the “shrunken log2 fold change” value was -0.127.

For RRIRKRPPRLPRPRPRPGHGPRP, the “shrunken log2 fold change” value stood at 0.16.

Regarding RRIRGRPPRLPRPRPRPNNQPRP, the “shrunken log2 fold change” value is -0.011.

Consider RRIRVRPPRLPRPRPRPEGGPRP, for which the “shrunken log2 fold change” value turned out to be 0.747.

Consider RRIRWRPPRLPRPRPRPLYGPRP, for which the “shrunken log2 fold change” value was -0.369.

For RRIRDRPPRLPRPRPRPFHSPRP, the “shrunken log2 fold change” value was -0.13.

For RRIRQRPPRLPRPRPRPRSAPRP, the “shrunken log2 fold change” value worked out at 0.319.

As to RRIRSRPPRLPRPRPRPPEWPRP, the “shrunken log2 fold change” value was 0.263.

Consider RRIRYRPPRLPRPRPRPHSEPRP, for which the “shrunken log2 fold change” value is -0.0168.

As to RRIRDRPPRLPRPRPRPTGNPRP, the “shrunken log2 fold change” value worked out at 0.195.

Regarding RRIRNRPPRLPRPRPRPWAQPRP, the “shrunken log2 fold change” value was -0.0776.

For RRIRSRPPRLPRPRPRPAAVPRP, the “shrunken log2 fold change” value stood at 0.418.

For RRIRERPPRLPRPRPRPACMPRP, the “shrunken log2 fold change” value was -0.0379.

As for RRIRFRPPRLPRPRPRPPFQPRP, the “shrunken log2 fold change” value was 0.258.

On to RRIRQRPPRLPRPRPRPETKPRP, for which the “shrunken log2 fold change” value is 0.0652.

For RRIRYRPPRLPRPRPRPYLQPRP, the “shrunken log2 fold change” value was -1.9.

Consider RRIRPRPPRLPRPRPRPHWPPRP, for which the “shrunken log2 fold change” value came to 0.0791.

On to RRIRVRPPRLPRPRPRPCYMPRP, for which the “shrunken log2 fold change” value turned out to be 0.155.

In the case of RRIRVRPPRLPRPRPRPHQVPRP, the “shrunken log2 fold change” value is -0.111.

In the case of RRIRLRPPRLPRPRPRPQPPPRP, the “shrunken log2 fold change” value was determined as 0.517.

On to RRIRWRPPRLPRPRPRPYWSPRP, for which the “shrunken log2 fold change” value is -0.295.

For the sequence RRIRGRPPRLPRPRPRPSIMPRP, the “shrunken log2 fold change” value came to 0.16.

With RRIRQRPPRLPRPRPRPLHGPRP, the “shrunken log2 fold change” value amounted to 0.0407.

Regarding RRIRERPPRLPRPRPRPCTGPRP, the “shrunken log2 fold change” value was -0.264.

Turning to RRIRWRPPRLPRPRPRPFWYPRP, the “shrunken log2 fold change” value was -0.214.

Turning to RRIRPRPPRLPRPRPRPSRMPRP, the “shrunken log2 fold change” value was -0.114.

Regarding RRIRTRPPRLPRPRPRPEPAPRP, the “shrunken log2 fold change” value is 0.763.

As to RRIRFRPPRLPRPRPRPNNRPRP, the “shrunken log2 fold change” value is -0.139.

With RRIRGRPPRLPRPRPRPTALPRP, the “shrunken log2 fold change” value was found to be 1.12.

Take RRIRPRPPRLPRPRPRPIPDPRP: the “shrunken log2 fold change” value stood at 0.0469.

Turning to RRIRGRPPRLPRPRPRPPLGPRP, the “shrunken log2 fold change” value is 0.844.

For RRIRDRPPRLPRPRPRPGDPPRP, the “shrunken log2 fold change” value stood at 0.293.

Consider RRIRHRPPRLPRPRPRPISMPRP, for which the “shrunken log2 fold change” value was -1.58.

In the case of RRIRRRPPRLPRPRPRPFRNPRP, the “shrunken log2 fold change” value was -0.0392.

On to RRIRKRPPRLPRPRPRPGYPPRP, for which the “shrunken log2 fold change” value turned out to be 0.0931.

RRIRYRPPRLPRPRPRPTTSPRP: the “shrunken log2 fold change” value is -0.382.

For the sequence RRIRLRPPRLPRPRPRPSWLPRP, the “shrunken log2 fold change” value is -0.532.

Regarding RRIRKRPPRLPRPRPRPNMCPRP, the “shrunken log2 fold change” value turned out to be 0.0251.

Regarding RRIRQRPPRLPRPRPRPNFSPRP, the “shrunken log2 fold change” value was -0.23.

For the sequence RRIRVRPPRLPRPRPRPKRQPRP, the “shrunken log2 fold change” value was determined as 0.0464.

For the sequence RRIRLRPPRLPRPRPRPIRMPRP, the “shrunken log2 fold change” value is -0.0243.

Turning to RRIRLRPPRLPRPRPRPEGLPRP, the “shrunken log2 fold change” value stood at 0.206.

As to RRIRMRPPRLPRPRPRPVMWPRP, the “shrunken log2 fold change” value was determined as 0.624.

Turning to RRIRQRPPRLPRPRPRPCSNPRP, the “shrunken log2 fold change” value was -0.174.

On to RRIRTRPPRLPRPRPRPLRYPRP, for which the “shrunken log2 fold change” value was -0.255.

For the sequence RRIRDRPPRLPRPRPRPAQFPRP, the “shrunken log2 fold change” value turned out to be 0.442.

Regarding RRIRTRPPRLPRPRPRPIFMPRP, the “shrunken log2 fold change” value turned out to be 0.0645.

With RRIRSRPPRLPRPRPRPLTMPRP, the “shrunken log2 fold change” value was -0.242.

For RRIRWRPPRLPRPRPRPDDIPRP, the “shrunken log2 fold change” value was -0.163.

Take RRIRARPPRLPRPRPRPDRNPRP: the “shrunken log2 fold change” value is -0.066.

Take RRIRTRPPRLPRPRPRPDLNPRP: the “shrunken log2 fold change” value was 0.0685.

For RRIRRRPPRLPRPRPRPDSCPRP, the “shrunken log2 fold change” value is -0.00351.

Take RRIRQRPPRLPRPRPRPLKKPRP: the “shrunken log2 fold change” value is -0.15.

Regarding RRIRRRPPRLPRPRPRPLADPRP, the “shrunken log2 fold change” value worked out at 0.311.

With RRIRFRPPRLPRPRPRPVYKPRP, the “shrunken log2 fold change” value is -0.295.

RRIRFRPPRLPRPRPRPCYNPRP: the “shrunken log2 fold change” value is -0.255.

RRIRRRPPRLPRPRPRPRLFPRP: the “shrunken log2 fold change” value was 0.593.

Regarding RRIRFRPPRLPRPRPRPKHYPRP, the “shrunken log2 fold change” value was -0.271.

As to RRIRNRPPRLPRPRPRPVFIPRP, the “shrunken log2 fold change” value was -0.459.

Consider RRIRRRPPRLPRPRPRPMTIPRP, for which the “shrunken log2 fold change” value worked out at 0.0416.

For RRIRGRPPRLPRPRPRPWHIPRP, the “shrunken log2 fold change” value is -0.111.

Regarding RRIRKRPPRLPRPRPRPCCLPRP, the “shrunken log2 fold change” value is -0.0964.

For the sequence RRIRCRPPRLPRPRPRPCKPPRP, the “shrunken log2 fold change” value is -0.216.

RRIRCRPPRLPRPRPRPWCRPRP: the “shrunken log2 fold change” value was -0.282.

Turning to RRIRVRPPRLPRPRPRPVHWPRP, the “shrunken log2 fold change” value came out at 0.133.

As for RRIRVRPPRLPRPRPRPCEVPRP, the “shrunken log2 fold change” value was -0.0542.

Turning to RRIRTRPPRLPRPRPRPEYVPRP, the “shrunken log2 fold change” value stood at 0.0172.

For the sequence RRIRERPPRLPRPRPRPSGRPRP, the “shrunken log2 fold change” value came out at 0.226.

RRIRQRPPRLPRPRPRPAYLPRP: the “shrunken log2 fold change” value was 0.0774.

RRIRWRPPRLPRPRPRPSVNPRP: the “shrunken log2 fold change” value is -0.0581.

RRIRARPPRLPRPRPRPCGEPRP: the “shrunken log2 fold change” value is -0.00932.

On to RRIRTRPPRLPRPRPRPSKHPRP, for which the “shrunken log2 fold change” value is -0.351.

On to RRIRVRPPRLPRPRPRPRGHPRP, for which the “shrunken log2 fold change” value amounted to 0.175.

In the case of RRIRERPPRLPRPRPRPGDHPRP, the “shrunken log2 fold change” value was -0.0518.

For the sequence RRIRCRPPRLPRPRPRPFYRPRP, the “shrunken log2 fold change” value is -0.313.

On to RRIRPRPPRLPRPRPRPSHAPRP, for which the “shrunken log2 fold change” value is -0.166.

As for RRIRSRPPRLPRPRPRPNNTPRP, the “shrunken log2 fold change” value was -0.574.

RRIRSRPPRLPRPRPRPMRLPRP: the “shrunken log2 fold change” value stood at 0.0162.

For the sequence RRIRTRPPRLPRPRPRPYLEPRP, the “shrunken log2 fold change” value is -0.573.

In the case of RRIRSRPPRLPRPRPRPNSCPRP, the “shrunken log2 fold change” value is -0.121.

For RRIRFRPPRLPRPRPRPTKWPRP, the “shrunken log2 fold change” value is 0.333.

Regarding RRIRWRPPRLPRPRPRPKAKPRP, the “shrunken log2 fold change” value was determined as 0.166.

Consider RRIRIRPPRLPRPRPRPPKIPRP, for which the “shrunken log2 fold change” value was -0.106.

Take RRIRRRPPRLPRPRPRPYNAPRP: the “shrunken log2 fold change” value is -0.964.

RRIRIRPPRLPRPRPRPNRRPRP: the “shrunken log2 fold change” value stood at 0.041.

Consider RRIRMRPPRLPRPRPRPYTPPRP, for which the “shrunken log2 fold change” value was -0.847.

Take RRIRLRPPRLPRPRPRPLFTPRP: the “shrunken log2 fold change” value was -0.232.

Regarding RRIRGRPPRLPRPRPRPTDCPRP, the “shrunken log2 fold change” value is 0.275.

For the sequence RRIRMRPPRLPRPRPRPVHQPRP, the “shrunken log2 fold change” value was -0.112.

Consider RRIRGRPPRLPRPRPRPVFLPRP, for which the “shrunken log2 fold change” value is -0.0506.

With RRIRWRPPRLPRPRPRPRYFPRP, the “shrunken log2 fold change” value is -0.127.

Consider RRIRKRPPRLPRPRPRPMHGPRP, for which the “shrunken log2 fold change” value was 0.272.

Regarding RRIRGRPPRLPRPRPRPMPIPRP, the “shrunken log2 fold change” value was found to be 0.0958.

For the sequence RRIRMRPPRLPRPRPRPVESPRP, the “shrunken log2 fold change” value was 0.00581.

Take RRIRHRPPRLPRPRPRPVLPPRP: the “shrunken log2 fold change” value was -0.0347.

Consider RRIRIRPPRLPRPRPRPFPVPRP, for which the “shrunken log2 fold change” value is -0.339.

Take RRIRGRPPRLPRPRPRPCHEPRP: the “shrunken log2 fold change” value turned out to be 0.492.

In the case of RRIRGRPPRLPRPRPRPVLAPRP, the “shrunken log2 fold change” value was found to be 0.773.

As to RRIRNRPPRLPRPRPRPPSSPRP, the “shrunken log2 fold change” value was -0.0814.

Turning to RRIRGRPPRLPRPRPRPQVNPRP, the “shrunken log2 fold change” value is 0.0954.

Take RRIRGRPPRLPRPRPRPQMKPRP: the “shrunken log2 fold change” value worked out at 0.29.

As for RRIRYRPPRLPRPRPRPTKAPRP, the “shrunken log2 fold change” value was -0.0298.

Turning to RRIRARPPRLPRPRPRPFQHPRP, the “shrunken log2 fold change” value was -0.162.
